PMC12858062 (2026)

B1: C3-Fc (anti-Pfs48/45 nanobody C3 fused to hinge and Fc of human IgG1) (Fc fusion)
chain: QVQLQESGGGSVQPGGSLRLSCAASGFTFSSYWMYWVRQAPEKGLEWVSVINPGGRITIYTDSVKGRFAVSRDNAKNTVYLQLNSLKPEDTAVYYCAASRTYSNSYSPSDYDYWGQGTQVTVSS
B2: B2-Fc (anti-Pfs48/45 nanobody B2 fused to hinge and Fc of human IgG1) (Fc fusion)
chain: QVQLQESGGGLVQAGGSLRLSCAASGRTFSKYAMAWFRQAPGKEREFVAAISGAGGATVHAAPVKGRFTISRDNAKNMGYLQMNSLKPEDTAVYYCAQTGSTGWPAGRTYTYDYWGQGTQVTVSS
B3: Anti-Pfs48/45 monoclonal antibody TB31F (humanised version of 85RF45.1) (antibody, V domains shown)
VH: EVQLVQSGGGLVQPGGSLRLSCAASGFTFNNYWMSWVRQAPGKGLEWVSSISNIGGTIYYPDSVKGRFTISRDNSKNTLYLQMNSLRAEDTAVYYCTRDLRMSDYFDYWGQGTMVTVSS
VL: NFMLTQPHSVSESPGKTVTISCTRSTGNIGSNYVSWYQQRPGSSPTTVIYRDDQRPSGVPDRFSGSIDRSSNSASLTISGLKTEDEADYYCHSYSTGMYIFGGGTKLTVL
B4: A4-Fc (anti-Pfs48/45 nanobody A4 fused to hinge and Fc of human IgG1) (Fc fusion)
chain: QVQLQESGGGLVQPGGSLRLSCAASGFTFSSYWMYWVRETPGKGLEWVSVINPGGRITIYTDSVKGRFTVSRDNAKNTVYLQMNSLKPEDTAVYFCAADLEYRAQLYAYWGQGTQVTVSS

Molecular target: Stabilised Pfs48/45 D3 (D3.mAgE1), PNGase F-deglycosylated, with C-terminal hexa-histidine tag and AviTag (P. falciparum)
Assay: BLI

In order of falling koff:
1. B1  0.0106 s⁻¹
2. B4  0.00851 s⁻¹
3. B2  0.00476 s⁻¹
4. B3  0.00239 s⁻¹
